# Columns and labels:
# [1] = target: HIV-1 Env of isolate ZM249 (HIV-1); assay: cell-based or functional assay
# [2] = target: HIV-1 APV-13 envelope glycoprotein (Env) on pseudovirus (HIV-1); assay: cell-based or functional assay
# [3] = target: HIV-1 envelope glycoprotein (Env) of isolate CAAN.A2, on pseudovirus (HIV-1); assay: cell-based or functional assay
# [4] = target: HIV-1 Env of isolate 92RW021 (HIV-1); assay: cell-based or functional assay
# [5] = target: HIV-1 envelope glycoprotein (Env) of isolate MGRM-Chronic-B-023, on pseudovirus (HIV-1); assay: cell-based or functional assay
# [6] = target: HIV-1 92RW020 Env (clade A pseudovirus) (HIV-1); assay: cell-based or functional assay
# [7] = target: HIV-1 MGRM-AG-005 Env (clade AG pseudovirus) (HIV-1); assay: cell-based or functional assay
# [8] = target: HIV-1 MGRM-C-027 Env (clade C pseudovirus) (HIV-1); assay: cell-based or functional assay
# [9] = target: HIV-1 NL43 Env (clade B pseudovirus) (HIV-1); assay: cell-based or functional assay
# [10] = target: HIV-1 92UG024 Env (clade D pseudovirus) (HIV-1); assay: cell-based or functional assay
# [11] = target: HIV-1 94UG103 Env (clade A pseudovirus) (HIV-1); assay: cell-based or functional assay
# [12] = target: HIV-1 MGRM-C-028 Env (pseudovirus) (HIV-1); assay: cell-based or functional assay
# [13] = target: HIV-1 MGRM-A-010 Env (pseudovirus) (HIV-1); assay: cell-based or functional assay
# [14] = target: HIV-1 92UG024 Env (pseudovirus) (HIV-1); assay: cell-based or functional assay
# [15] = target: HIV-1 Env of isolate APV6 (clade B) (HIV-1); assay: cell-based or functional assay
# [16] = target: HIV-1 Env of isolate MGRM-C-028 (clade C) (HIV-1); assay: cell-based or functional assay
# [17] = target: HIV-1 Env of isolate 93UG077 (clade A) (HIV-1); assay: cell-based or functional assay
# [18] = target: HIV-1 Env of isolate 92TH021 (clade AE) (HIV-1); assay: cell-based or functional assay
# [19] = target: Endo H treated JR-FL gp120 (HIV-1 (isolate JR-FL)); assay: ELISA on coated gp120; EC50 by nonlinear regression
# [20] = target: JR-FL gp120 ΔV3 (HIV-1 (isolate JR-FL)); assay: as above
# [21] = target: HIV-1 JR-CSF Env D325A (HIV-1 isolate JR-CSF) (UniProt P20871); assay: cell-based or functional assay
# [22] = target: HIV-1 JR-CSF Env N396A (HIV-1 (isolate JR-CSF)) (UniProt P20871); assay: cell-based or functional assay
# [23] = target: HIV-1 JR-CSF Env R327A (HIV-1 isolate JR-CSF) (UniProt P20871); assay: cell-based or functional assay
# [24] = target: HIV-1 JR-CSF Env S393A (HIV-1 (isolate JR-CSF)) (UniProt P20871); assay: cell-based or functional assay
# [25] = target: HIV-1 JR-CSF Env I326A (HIV-1 isolate JR-CSF) (UniProt P20871); assay: cell-based or functional assay
# [26] = target: HIV-1 JR-CSF Env G324A (HIV-1 isolate JR-CSF) (UniProt P20871); assay: cell-based or functional assay
# [27] = target: HIV-1 JR-CSF Env V292A (HIV-1 JR-CSF) (UniProt P20871); assay: cell-based or functional assay
# [28] = target: HIV-1 JR-CSF Env S387A (HIV-1 (isolate JR-CSF)) (UniProt P20871); assay: cell-based or functional assay
# [29] = target: HIV-1 JR-CSF Env N332A (HIV-1 isolate JR-CSF) (UniProt P20871); assay: cell-based or functional assay
# [30] = target: HIV-1 Env of isolate MGRM-F1-008 (HIV-1); assay: cell-based or functional assay
# [31] = target: HIV-1 Env of isolate MG RM-A-008 (pseudovirus) (HIV-1); assay: cell-based or functional assay
# [32] = target: HIV-1 Env of isolate 92UG005 (subtype D), on pseudovirus (HIV-1); assay: cell-based or functional assay
# [33] = target: HIV-1 Env of isolate 92UG024 (subtype D), on pseudovirus (HIV-1); assay: cell-based or functional assay
# [34] = target: HIV-1 Env of isolate MG RM-A-014 (pseudovirus) (HIV-1); assay: cell-based or functional assay
# [35] = target: HIV-1 Env of isolate MGRM-D-004 (subtype D), on pseudovirus (HIV-1); assay: cell-based or functional assay
# Chain of 1443_C16 (PG16) (TCN-116) (antibody) (VH): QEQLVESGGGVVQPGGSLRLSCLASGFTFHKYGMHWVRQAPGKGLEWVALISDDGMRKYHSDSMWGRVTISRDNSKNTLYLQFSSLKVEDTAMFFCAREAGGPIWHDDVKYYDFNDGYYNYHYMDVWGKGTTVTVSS
# Chain of 1443_C16 (PG16) (TCN-116) (antibody) (VL): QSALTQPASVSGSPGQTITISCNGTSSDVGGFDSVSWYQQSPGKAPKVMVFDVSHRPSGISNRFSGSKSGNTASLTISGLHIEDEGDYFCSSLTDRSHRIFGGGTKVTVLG
substance,measurement,setting,value
1443_C16 (PG16) (TCN-116) (antibody),"IC50, pseudovirus neutralization (TZM-bl)",[1],< 0.01 µg/mL
same,IC90 (pseudovirus neutralization),[2],> 50 µg/mL
1496_C09 (PG9) (TCN-109) (antibody),"IC50, pseudovirus neutralization",[3],19.3 µg/mL
same,IC50,[4],0.027 µg/mL
same,"IC50, pseudovirus neutralization",[5],0.027 µg/mL
4877_D15 (PGT-122) (antibody),"Neutralization by PGT-122, IC50",[6],0.0072 µg/mL
same,"Neutralization by PGT-122, IC80",[6],0.0407 µg/mL
same,"Neutralization by PGT-122, IC90",[6],0.113 µg/mL
same,"Neutralization by PGT-122, IC95",[6],0.289 µg/mL
same,"Neutralization by PGT-122, IC50",[7],> 10 µg/mL
same,"Neutralization by PGT-122, IC80",[7],> 10 µg/mL
same,"Neutralization by PGT-122, IC90",[7],> 10 µg/mL
same,"Neutralization by PGT-122, IC95",[7],> 10 µg/mL
same,"Neutralization by PGT-122, IC50",[8],0.0388 µg/mL
same,"Neutralization by PGT-122, IC80",[8],0.499 µg/mL
same,"Neutralization by PGT-122, IC90",[8],> 10 µg/mL
same,"Neutralization by PGT-122, IC95",[8],> 10 µg/mL
same,"Neutralization by PGT-122, IC50",[9],> 10 µg/mL
same,"Neutralization by PGT-122, IC80",[9],> 10 µg/mL
same,"Neutralization by PGT-122, IC90",[9],> 10 µg/mL
same,"Neutralization by PGT-122, IC95",[9],> 10 µg/mL
same,"Neutralization by PGT-122, IC50",[10],> 10 µg/mL
same,"Neutralization by PGT-122, IC80",[10],> 10 µg/mL
same,"Neutralization by PGT-122, IC90",[10],> 10 µg/mL
same,"Neutralization by PGT-122, IC95",[10],> 10 µg/mL
same,"Neutralization by PGT-122, IC50",[11],1.46 µg/mL
same,"Neutralization by PGT-122, IC80",[11],6.58 µg/mL
same,"Neutralization by PGT-122, IC90",[11],> 10 µg/mL
same,"Neutralization by PGT-122, IC95",[11],> 10 µg/mL
5141_B17 (PGT-126) (antibody),IC50,[12],0.283 µg/mL
same,IC80,[12],2.62 µg/mL
same,IC90,[12],> 10 µg/mL
same,IC95,[12],> 10 µg/mL
same,IC50,[13],0.0033 µg/mL
same,IC80,[13],0.0137 µg/mL
same,IC90,[13],0.0316 µg/mL
same,IC95,[13],0.0687 µg/mL
same,IC50,[14],> 10 µg/mL
same,IC80,[14],> 10 µg/mL
same,IC90,[14],> 10 µg/mL
same,IC95,[14],> 10 µg/mL
5147_N06 (PGT-130) (antibody),neutralization IC50,[15],> 10 µg/mL
same,neutralization IC80,[15],> 10 µg/mL
same,neutralization IC90,[15],> 10 µg/mL
same,neutralization IC95,[15],> 10 µg/mL
same,neutralization IC50,[16],> 10 µg/mL
same,neutralization IC80,[16],> 10 µg/mL
same,neutralization IC90,[16],> 10 µg/mL
same,neutralization IC95,[16],> 10 µg/mL
same,neutralization IC50,[17],> 10 µg/mL
same,neutralization IC80,[17],> 10 µg/mL
same,neutralization IC90,[17],> 10 µg/mL
same,neutralization IC95,[17],> 10 µg/mL
same,neutralization IC50,[18],0.0082 µg/mL
same,neutralization IC80,[18],0.0261 µg/mL
same,neutralization IC90,[18],0.0513 µg/mL
same,neutralization IC95,[18],0.0963 µg/mL
PGT-121 (antibody),EC50,[19],> 10 µg/mL
same,EC50,[20],> 10 µg/mL
same,Fold IC50 increase relative to wild-type,[21],2 fold
same,Fold IC50 increase relative to wild-type,[22],1.3 fold
same,Fold IC50 increase relative to wild-type,[23],2.5 fold
same,Fold IC50 increase relative to wild-type,[24],0.6 fold
same,Fold IC50 increase relative to wild-type,[25],0.7 fold
same,Fold IC50 increase relative to wild-type,[26],16.6 fold
same,Fold IC50 increase relative to wild-type,[27],2.7 fold
same,Fold IC50 increase relative to wild-type,[28],0.5 fold
same,Fold IC50 increase relative to wild-type,[29],> 200 fold
PGT-122 (antibody),Fold IC50 increase relative to wild-type,[21],44 fold
same,Fold IC50 increase relative to wild-type,[22],1.1 fold
same,Fold IC50 increase relative to wild-type,[23],1.7 fold
same,Fold IC50 increase relative to wild-type,[24],0.5 fold
same,Fold IC50 increase relative to wild-type,[25],0.6 fold
same,Fold IC50 increase relative to wild-type,[26],12.5 fold
same,Fold IC50 increase relative to wild-type,[27],1.3 fold
same,Fold IC50 increase relative to wild-type,[28],0.9 fold
same,Fold IC50 increase relative to wild-type,[29],> 200 fold
PGV04 (antibody),"IC50, pseudovirus neutralization",[3],2.26 µg/mL
same,"IC50 (µg/mL), pseudovirus neutralization",[30],1.03 µg/mL
same,IC50,[4],0.038 µg/mL
same,"IC50, pseudovirus neutralization",[5],0.139 µg/mL
VRC01 (antibody),"IC50, pseudovirus neutralization",[30],1.11 µg/mL
same,"IC50 (µg/mL), pseudovirus neutralization",[31],0.303 µg/mL
same,"IC50, pseudovirus neutralization",[32],0.576 µg/mL
same,"IC50, pseudovirus neutralization",[33],0.576 µg/mL
same,"IC50 (µg/mL), pseudovirus neutralization",[34],0.135 µg/mL
same,"IC50, pseudovirus neutralization",[35],1.25 µg/mL
b12 (antibody),IC90 (pseudovirus neutralization),[2],> 50 µg/mL

# Source: US20200024330A1
